In patent publication US7442773B2, “Universal peptide-binding scaffolds and protein chips” (The Board of Trustees of The University of Illinois, priority 2004, dated 2008) one finds Kd data, which are given here for 1 molecule.

The assay concerns the target biotinylated HA306-318 peptide. Type of assay: binding, influenza virus. To be noted: 20 hours at 37° C., flow cytometry, estimated, read-out: apparent dissociation constant KD of the biotinylated HA306-318 peptide complex.

B1: DWP-7: evolved single-chain HLA-DR1 variant (α-linker-β) from library lib-αβ, SEQ ID NOs:35 and 36 (protein)
chain: RKEEHVITQAEFYLNPDQSGEFMFDFDGDEIFHVDMAKKETVWRLEEFGRFASFEAQGALANIAVDKANLEIMTKRSNYTPITNVPPEVTVLTNSPVELREPNVLICYIDKFTPPVVNVTWLRNGKPVTTGVSETVFLPREDHLFRKFHYLPFLPSTEDVYDCRVEHWGLDEPLLKHWEFNAPSPLPETTENLGGGGSGGGRSGGGGSGDTRPRFLWQHKFECHFFNGTERVRLLERCIYNQEESVRFDSDVGEYRAVTELGRPAAEYWNSQKDLLEQRRAAADTYCRHNYGVGESFTVRRRVEPKVTVYPSKTQPLQHHNLLVCSVSGFYPGSIEVRWFRNGQEEKAGVVSTGLIQNGDWTFQTLVMLETVPRSGEVYTCQVEHPSVTSPLTVEWRARSESAQSKLESRGPFEGKPIPNPLLGLDSTRTGHHHHHH
modifications: Sequence of mutant DWP-7
In the case of B1, the Kd is 5 µM.
